Bridge positions count the residues as written; N and C are the ends. Square brackets hold non-standard residues; d marks the D form. Primed or numbered codes have the meaning given here. Side chains are listed from the residue outwards. Ends that are not written are not given here. * marks the point of attachment. Glu‑DTPA‑Gd = N-terminal Glu-DTPA-Gd chelate (gadolinium DTPA complex on glutamic acid); Tyr(3-I) = N[C@@H](Cc1ccc(O)c(I)c1)C(=O)O; Glu‑DTPA‑Gd‑PEG(2O) = not defined here; Gd^T = not defined here; Gd^T″ = GdDTPA-thiourea; Cbz = O=C(OCc1ccccc1)*; AEEA = NCCOCCOCC(=O)O
What was measured:
human collagen type I = target: T1, human collagen type I (Homo sapiens, UniProt P02452+P08123); experiment: Dried collagen assay (DCA): percent binding to dried human collagen; settings: 5 μM peptide in PBS, pH 7.4, 2 hours at room temperature
T1 construct: Acid soluble human collagen extracted from placenta; purchased Sigma C7774 (lot #083K375); host or cells: human placenta
Method: Acid soluble human collagen extracted from placenta (Sigma, cat #C7774, lot #083K375) is dissolved in 15 mM HCl (3.5 mg/ml) by vortexing and gently shaking for 3-4 hours at 4° C. The acid soluble collagen is […] against PBS, pH 7.4 (three buffer exchanges are used). The […] protein concentration is determined by the BCA method (Pierce, Cat #23225) using bovine collagen (Vitrogen, cat #FXP-019) as a reference standard. Percent gelation (fibril formation) of the collagen is determined by incubating 10 μM collagen (3.3 mg/ml) at 37° C. for 6 hours. A typical percent gelation is 60%.
(§1) An additional 90 μL is reserved in a HPLC glass vial as a measure of the total concentration.

[1] = target: human collagen type I (acid soluble, extracted from placenta, Sigma C7774) (human) (UniProt P02452); experiment: dried collagen assay
[2] = target: rat collagen (acid soluble, type I, rat tail, Upstate 08-115) (rat) (UniProt P02454); experiment: dried collagen assay
[3] = target: T2, human collagen type I (acid soluble, extracted from placenta, Sigma C7774) (human, UniProt P02452 162-1218; P08123 80-1119); experiment: dried collagen assay
T2 construct: gelled and dried as a fibril film in the assay; also called dried human collagen; h-Collagen
Method: as §1

Chain of rat collagen (acid soluble, type I, rat tail, Upstate 08-115) (rat) (P02454 152-1207 limits assumed, chain 1 of 2): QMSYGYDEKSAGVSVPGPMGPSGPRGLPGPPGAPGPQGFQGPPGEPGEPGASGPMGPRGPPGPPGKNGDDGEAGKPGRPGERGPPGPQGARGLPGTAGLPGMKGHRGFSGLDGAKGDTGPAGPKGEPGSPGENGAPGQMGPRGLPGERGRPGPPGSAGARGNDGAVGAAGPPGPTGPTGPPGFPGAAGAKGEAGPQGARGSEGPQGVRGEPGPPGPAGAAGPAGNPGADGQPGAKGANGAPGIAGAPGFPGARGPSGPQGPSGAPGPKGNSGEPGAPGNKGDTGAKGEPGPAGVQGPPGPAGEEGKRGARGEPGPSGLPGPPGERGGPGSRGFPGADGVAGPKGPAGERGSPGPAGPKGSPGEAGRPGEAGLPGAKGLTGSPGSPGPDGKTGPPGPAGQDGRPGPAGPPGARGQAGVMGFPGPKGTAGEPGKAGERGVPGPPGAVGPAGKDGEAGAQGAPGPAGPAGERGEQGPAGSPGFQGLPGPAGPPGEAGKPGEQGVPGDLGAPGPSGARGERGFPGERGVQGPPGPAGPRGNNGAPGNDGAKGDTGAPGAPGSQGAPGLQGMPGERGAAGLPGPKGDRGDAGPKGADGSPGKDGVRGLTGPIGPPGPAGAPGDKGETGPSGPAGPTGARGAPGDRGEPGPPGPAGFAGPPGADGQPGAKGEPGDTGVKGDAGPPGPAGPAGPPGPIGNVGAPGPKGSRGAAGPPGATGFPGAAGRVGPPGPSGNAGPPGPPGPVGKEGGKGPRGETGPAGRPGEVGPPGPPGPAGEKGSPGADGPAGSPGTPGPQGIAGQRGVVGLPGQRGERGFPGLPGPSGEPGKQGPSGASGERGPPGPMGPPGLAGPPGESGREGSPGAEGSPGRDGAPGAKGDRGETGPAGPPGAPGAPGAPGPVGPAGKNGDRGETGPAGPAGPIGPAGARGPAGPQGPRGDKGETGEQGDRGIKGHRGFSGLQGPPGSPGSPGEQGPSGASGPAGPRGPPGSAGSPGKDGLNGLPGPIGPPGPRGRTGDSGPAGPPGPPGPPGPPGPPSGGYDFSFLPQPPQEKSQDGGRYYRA
Chain of rat collagen (acid soluble, type I, rat tail, Upstate 08-115) (rat) (P02466 86-1125 limits assumed, chain 2 of 2, further chain): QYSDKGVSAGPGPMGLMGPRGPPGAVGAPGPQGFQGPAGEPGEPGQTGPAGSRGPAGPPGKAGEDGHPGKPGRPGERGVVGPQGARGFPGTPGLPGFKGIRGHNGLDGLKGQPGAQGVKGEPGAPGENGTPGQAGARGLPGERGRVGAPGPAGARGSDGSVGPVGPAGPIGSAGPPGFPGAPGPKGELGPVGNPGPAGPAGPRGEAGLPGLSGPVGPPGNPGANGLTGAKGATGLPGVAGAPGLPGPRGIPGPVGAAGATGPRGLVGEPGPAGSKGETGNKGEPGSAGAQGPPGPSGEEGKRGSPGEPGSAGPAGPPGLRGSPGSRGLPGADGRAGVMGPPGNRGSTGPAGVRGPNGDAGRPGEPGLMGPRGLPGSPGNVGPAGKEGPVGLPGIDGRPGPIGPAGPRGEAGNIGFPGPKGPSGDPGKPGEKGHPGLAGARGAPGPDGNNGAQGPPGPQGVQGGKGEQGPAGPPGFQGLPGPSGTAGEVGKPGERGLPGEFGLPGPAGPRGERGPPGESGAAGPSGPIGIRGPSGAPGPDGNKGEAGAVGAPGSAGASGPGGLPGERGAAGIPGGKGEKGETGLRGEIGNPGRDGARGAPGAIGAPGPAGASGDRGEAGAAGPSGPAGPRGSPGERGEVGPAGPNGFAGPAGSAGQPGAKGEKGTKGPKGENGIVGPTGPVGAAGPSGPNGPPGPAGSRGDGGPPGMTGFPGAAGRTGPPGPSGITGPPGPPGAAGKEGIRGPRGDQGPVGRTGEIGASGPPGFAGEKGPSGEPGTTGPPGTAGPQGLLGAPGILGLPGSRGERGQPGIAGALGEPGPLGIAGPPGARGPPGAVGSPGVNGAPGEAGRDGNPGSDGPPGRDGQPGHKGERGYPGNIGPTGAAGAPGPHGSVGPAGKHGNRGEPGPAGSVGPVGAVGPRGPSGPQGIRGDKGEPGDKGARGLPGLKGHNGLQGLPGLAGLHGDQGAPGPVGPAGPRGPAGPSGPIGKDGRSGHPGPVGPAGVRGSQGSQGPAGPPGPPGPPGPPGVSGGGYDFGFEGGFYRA
T1 sequence (P02452 162-1218 limits assumed): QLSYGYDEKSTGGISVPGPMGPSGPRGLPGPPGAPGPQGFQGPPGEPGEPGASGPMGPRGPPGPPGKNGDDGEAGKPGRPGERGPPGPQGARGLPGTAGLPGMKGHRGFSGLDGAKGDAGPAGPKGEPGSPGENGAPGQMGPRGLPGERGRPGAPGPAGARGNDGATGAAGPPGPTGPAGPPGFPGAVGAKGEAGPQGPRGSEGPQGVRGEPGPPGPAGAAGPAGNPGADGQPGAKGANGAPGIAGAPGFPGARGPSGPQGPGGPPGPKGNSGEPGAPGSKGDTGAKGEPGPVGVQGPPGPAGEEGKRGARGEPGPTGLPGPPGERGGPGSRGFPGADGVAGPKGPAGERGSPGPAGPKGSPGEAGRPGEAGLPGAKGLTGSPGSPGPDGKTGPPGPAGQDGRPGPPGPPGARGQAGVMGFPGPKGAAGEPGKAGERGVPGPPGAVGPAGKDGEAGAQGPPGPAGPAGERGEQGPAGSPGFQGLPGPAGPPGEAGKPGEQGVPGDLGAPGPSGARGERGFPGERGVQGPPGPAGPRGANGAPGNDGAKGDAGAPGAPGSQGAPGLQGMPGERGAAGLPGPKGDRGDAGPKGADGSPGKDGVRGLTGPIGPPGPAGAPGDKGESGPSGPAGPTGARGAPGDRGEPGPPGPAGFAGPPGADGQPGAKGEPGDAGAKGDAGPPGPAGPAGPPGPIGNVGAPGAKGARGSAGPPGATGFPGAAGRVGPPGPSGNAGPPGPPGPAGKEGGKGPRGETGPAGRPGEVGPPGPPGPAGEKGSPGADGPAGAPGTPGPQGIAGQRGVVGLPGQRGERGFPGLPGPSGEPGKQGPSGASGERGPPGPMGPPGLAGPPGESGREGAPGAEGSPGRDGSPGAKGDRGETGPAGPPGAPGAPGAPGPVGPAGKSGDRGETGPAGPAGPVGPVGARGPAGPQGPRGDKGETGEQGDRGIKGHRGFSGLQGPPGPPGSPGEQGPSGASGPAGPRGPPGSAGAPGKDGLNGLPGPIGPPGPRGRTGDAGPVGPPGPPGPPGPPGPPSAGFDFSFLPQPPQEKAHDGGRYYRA
T1 sequence (P08123 80-1119 limits assumed): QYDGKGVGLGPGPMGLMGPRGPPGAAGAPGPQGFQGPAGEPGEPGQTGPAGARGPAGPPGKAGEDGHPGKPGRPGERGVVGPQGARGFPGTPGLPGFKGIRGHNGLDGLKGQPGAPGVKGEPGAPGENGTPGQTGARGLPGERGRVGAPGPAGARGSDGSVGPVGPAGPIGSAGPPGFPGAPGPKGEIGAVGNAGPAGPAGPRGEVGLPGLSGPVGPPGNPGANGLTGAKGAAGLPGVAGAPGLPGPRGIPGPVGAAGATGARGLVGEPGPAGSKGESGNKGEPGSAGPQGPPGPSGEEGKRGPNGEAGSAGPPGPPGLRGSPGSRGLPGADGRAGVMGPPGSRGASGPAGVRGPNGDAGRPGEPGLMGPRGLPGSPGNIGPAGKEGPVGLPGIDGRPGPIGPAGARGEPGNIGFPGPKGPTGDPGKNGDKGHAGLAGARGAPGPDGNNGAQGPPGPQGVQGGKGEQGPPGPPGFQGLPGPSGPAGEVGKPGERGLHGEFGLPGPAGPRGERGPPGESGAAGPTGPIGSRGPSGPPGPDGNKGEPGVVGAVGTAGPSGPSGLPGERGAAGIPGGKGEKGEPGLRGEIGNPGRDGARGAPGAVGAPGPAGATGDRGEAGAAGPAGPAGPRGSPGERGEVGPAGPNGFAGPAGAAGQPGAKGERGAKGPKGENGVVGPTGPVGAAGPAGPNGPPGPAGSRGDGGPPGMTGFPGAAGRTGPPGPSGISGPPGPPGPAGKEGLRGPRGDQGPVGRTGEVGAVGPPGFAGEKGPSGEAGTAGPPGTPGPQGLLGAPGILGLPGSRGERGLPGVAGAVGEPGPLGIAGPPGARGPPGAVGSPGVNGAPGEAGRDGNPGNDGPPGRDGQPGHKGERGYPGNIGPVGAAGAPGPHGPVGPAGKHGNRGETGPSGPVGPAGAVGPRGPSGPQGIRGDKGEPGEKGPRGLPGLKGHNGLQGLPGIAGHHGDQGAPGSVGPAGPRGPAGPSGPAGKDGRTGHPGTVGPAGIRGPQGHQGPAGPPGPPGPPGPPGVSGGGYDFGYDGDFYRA
Chain of human collagen type I (acid soluble, extracted from placenta, Sigma C7774) (human) (P02452 162-1218 limits assumed, chain 1 of 2): as the sequence (P02452 162-1218 limits assumed) above
Chain of human collagen type I (acid soluble, extracted from placenta, Sigma C7774) (human) (P08123 80-1119 limits assumed, chain 2 of 2, further chain): as the sequence (P08123 80-1119 limits assumed) above
T2 sequence (P02452 162-1218 limits assumed, chain 1 of 2): as the sequence (P02452 162-1218 limits assumed) above
T2 sequence (P08123 80-1119 limits assumed, chain 2 of 2): as the sequence (P08123 80-1119 limits assumed) above

Row | Molecule | % bound [1] [%] | % bound [2] [%] | further results
1 | 65 (KWECVHTKGEWYCETK) [compound 65] |  |  | Dried Human Collagen Binding (human collagen type I): 7%
2 | 147 (QWTCSGDEYTAHCNYE; disulfide 4-13 (inferred)) [compound 147] |  |  | % Collagen Binding Dried Human (human collagen type I): 5%
3 | 174 (QWTCSGDEYTW[dH]CNYE; disulfide 4-13 (inferred)) [compound 174] |  |  | % Collagen Binding Dried Human (human collagen type I): 5%
4 | 37 (LWNCHGTDANWKCVLN) [compound 37] |  |  | Dried Human Collagen Binding (human collagen type I): 7%
5 | 2 (WGWCEWAQNNCWNY) [compound 2] |  |  | Dried Human Collagen Binding (human collagen type I): 14%
6 | 167 (QWT[dC]SGDEYTWHCNYE; disulfide 4-13 (inferred)) [compound 167] |  |  | % Collagen Binding Dried Human (human collagen type I): 4%
7 | 36 (SWSCGGDHNAWKCQYS) [compound 36] |  |  | Dried Human Collagen Binding (human collagen type I): 7%
8 | 3 (PWWCHEMPSMCFGF) [compound 3] |  |  | Dried Human Collagen Binding (human collagen type I): 2%
9 | 112 (AKACSVHDEFGCLIS; disulfide 4-12 (inferred)) [compound 112] |  |  | Dried Human Collagen Binding (human collagen type I): 9%
10 | 38 (GWSCHGDAADWPCQWS) [compound 38] |  |  | Dried Human Collagen Binding (human collagen type I): 6%
11 | 159 (YHACYQAG[dC]WIW; disulfide 4-9 (inferred)) [compound 159] |  |  | % Collagen Binding Dried Human (human collagen type I): 7%
12 | 113 (FSECVWVNAYQCEYF; disulfide 4-12 (inferred)) [compound 113] |  |  | Dried Human Collagen Binding (human collagen type I): 3%
13 | 39 (GWQCSGDASVWNCDWI) [compound 39] |  |  | Dried Human Collagen Binding (human collagen type I): 6%
14 | 130 (WWACQKGRHDWEKCRWL; disulfide 4-14 (inferred)) [compound 130] |  |  | Dried Human Collagen Binding (human collagen type I): 32%
15 | GQWHCTTDFPHHYCLYG (not fully specified; Gd^T-GQWHCTTD-F(3,4-OMe)-PHHYCLYG) [Comp ID 893] | 4 | 2 | 
16 | {Gd^T″}-DWTCSGDEYYWHCNYE (disulfide 4-13 (inferred)) [Comp ID 834] | 22 | 9 | 
17 | Cbz-GQWHCTK(Gd^T″)RFPHHYCLYG (disulfide 5-14 (inferred); not fully specified (C-terminus); printed as cbz-GQWHCT-K(Gd^T)-RFPHHYCLYG) [Comp ID 940] |  | 8 | 
18 | {Gd^T}-DWTCS[dS]DEYTWHCNYE (disulfide 4-13 (inferred); not fully specified (C-terminus); printed as Gd^T-DWTCSsDEYTWHCNYE; reading uncertain) [Comp ID 836] | 13 | 8 | 
19 | {Gd^T}-DWTCS[dA]DEYTWHCNYE (disulfide 4-13 (inferred); not fully specified (C-terminus); printed as Gd^T-DWTCSaDEYTWHCNYE; reading uncertain) [Comp ID 835] | 17 | 9 | 
20 | {Gd^T}-DWTCSGDE[Tyr(3-I)]TWHCNYE (disulfide 4-13 (inferred); not fully specified (C-terminus); reading uncertain) [Comp ID 846] |  | 9 | 

Row | Molecule | % bound [1] [%] | % bound [2] [%] | further results
21 | DWTCSGDEYTWYCNYE (not fully specified; Gd^T-DWTCSGDEYTWYCNYE) [Comp ID 842] | 23 | 9 | 
22 | GQWHCTTRFPHHFCLYG (not fully specified; Gd^T-GQWHCTTRFPHHfCLYG) [Comp ID 901] | 2 | 2 | 
23 | {Gd^T″}-GQWTCSGDEYTWACNYE (disulfide 5-14 (inferred)) [Comp ID 833] | 13 | 4 | 
24 | DWTCSGDEYRWHCNYE (not fully specified; Gd^T-DWTCSGDEYRWHCNYE) [Comp ID 845] |  | 10 | 
25 | {Gd^T″}-GQWTCSGDEYAWHCNY[dE] (disulfide 5-14 (inferred)) [Comp ID 832] | 12 | 4 | 
26 | GQWHCTTRFPHHXCLYG (not fully specified; Gd^T-GQWHCTTRFPHH-1-nal-CLYG) [Comp ID 904] |  | 3 | 
27 | {Glu‑DTPA‑Gd‑PEG(2O)}-GQWTCSGDEYTWHCNY[dE]-NH2 (disulfide 5-14 (inferred); reading uncertain) [Compound ID 1026] |  | 5 | 
28 | DWTCSGDEYTWHCNYE (not fully specified; Gd^T-DWTCSGDEYTWHCNYE) [Comp ID 848] |  | 9 | 
29 | RWSCVLDADGWVCSDN (disulfide 4-13 (inferred)) [SEQ ID NO: 66] | 6 |  | 
30 | {Gd^T″}-GK([Gly-Gd^T″])WHCTTLFPHHVCLYG (disulfide 5-14 (inferred); not fully specified (C-terminus); printed as Gd^T-G-K(G.Gd^T)-WHCTTLFPHHVCLYG) [Comp ID 966] |  | 8 | 
31 | GWSCHSMDMQWHCDFS (disulfide 4-13 (inferred)) [SEQ ID NO: 67] | 5 |  | 
32 | {Glu‑DTPA‑Gd}-GGDWTCVGDHKTWKCNFH-NH2 (disulfide 6-15 (inferred)) [Compound ID 1023] |  | 12 | 
33 | GQWHCTTDFPHHYCLYG (not fully specified; Gd^T-GQWHCTTD-F(4-CN)-PHHYCLYG) [Comp ID 883] | 8 | 2 | 
34 | GQWTCSGDEYTWHCAYE (not fully specified; Gd^T-GQWTCSGDEYTWHCAYE) [Comp ID 839] |  | 11 | 
35 | GQWACSGDEYTWHCNYE (not fully specified; Gd^T-GQWACSGDEYTWHCNYE) [Comp ID 840] | 15 | 3 | 
36 | GQWHCTTLFPHHYCLYG (not fully specified; Gd^T-GQWHCTTLFPHHyCLYG) [Comp ID 907] | 6 | 1 | 
37 | {Gd^T}-DWTCS[dL]DEYTWHCNYE (disulfide 4-13 (inferred); not fully specified (C-terminus); reading uncertain) [Comp ID 847] | 16 | 7 | 
38 | GQWHCTTRFPHHXCLYG (not fully specified; Gd^T-GQWHCTTRFPHH-bip-CLYG) [Comp ID 903] | 3 | 5 | 
39 | KWECVHTKGEWYCETK (disulfide 4-13 (inferred)) [SEQ ID NO: 65] | 7 |  | 
40 | {Gd^T″}-GAWTCSGDEYTWHCNYE (disulfide 5-14 (inferred)) [Comp ID 830] | 26 | 11 | 

Further lines, with some results ahead:

Row | % bound [1] [%] | % bound [2] [%] | Molecule | further results
41 | 5 | 12 | YHACYQAGCYIY (disulfide 4-9 (inferred)) [SEQ ID NO: 108] | 
42 | 6 |  | SWYCNNGSYGQWHCEHR (disulfide 4-14 (inferred)) [SEQ ID NO: 80] | 
43 | 10 |  | ERNCVLNDFRWTCGGD (disulfide 4-13 (inferred)) [SEQ ID NO: 75] | 
44 | 8 |  | TWACDLDEYGGWQCYTG (disulfide 4-14 (inferred)) [SEQ ID NO: 78] | 
45 | 5 |  | SWHCFLENHHWMCSDH (disulfide 4-13 (inferred)) [SEQ ID NO: 68] | 
46 |  | 6 | YHACYQAGCYIW (disulfide 4-9 (inferred)) [SEQ ID NO: 107] | % bound [3]: 9%
47 | 12 |  | GWQCQGTDSLDWKCLYM (disulfide 4-14 (inferred)) [SEQ ID NO: 77] | 
48 | 8 |  | FWTCELDFRQSWYCYDK (disulfide 4-14 (inferred)) [SEQ ID NO: 79] | 
49 |  | 9 | {Glu‑DTPA‑Gd}-WWGCRQGTGEHWSHCMWF-{AEEA-Glu‑DTPA‑Gd} (cysteine pairing not given here; also: Gd chelated by DTPA at each end) [SEQ ID NO: 195] | 

— patent US20070293656A1, “COLLAGEN BINDING PEPTIDES” (Epix Pharmaceuticals, Inc., priority 2005, published 2007)
